{"source": "patent US20220162310A1", "about": "(GREEN CROSS, published 2022)", "binders": {"B1": {"name": "reference antibody (anti-TIGIT) (antibody, V domains shown)", "VH": "EVQLQQSGPGLVKPSQTLSLTCAISGDSVSSNSAAWNWIRQSPSRGLEWLGKTYYRFKWYSDYAVSVKGRITINPDTSKNQFSLQLNSVTPEDTAVFYCTRESTTYDLLAGPFDYWGQGTLVTVSS", "VL": "not shown"}, "B2": {"name": "1G8 (IgG-type anti-TIGIT antibody) (antibody, V domains shown)", "VH": "EVQLVQSGAEVKKPGASVKVSCKASGYTFTSYYMHWVRQAPGQGLEWMGIINPSGGSTSYAQKFQGRVTMTRDTSTSTVYMELSSLRSEDTAVYYCASRSGSGWFGALDYWGQGTLVTVSS", "VL": "not shown", "notes": "section 4.2 is headed 'Conversion to IgG4-Type Anti-TIGIT Antibodies'; also called TIGIT candidate antibody (1G8)"}, "B3": {"name": "WIN_1B6 (IgG-type anti-TIGIT antibody) (antibody, V domains shown)", "VH": "QVQLVQSGAEVKKPGASVKVSCKASGYTFTSYGISWVRQAPGQGLEWMGWISAYNGNTNYAQKLQGRVTMTTDTSTSTAYMELRSLRSDDTAVYYCARAGWEQQLGFDYWGQGTLVTVSS", "VL": "AIQLTQSPSSLSASVGDRVTISCRASQTIRSYLNWYQQKPGKAPKLLIYAASSLQSGVPLRFSGSGSGTDFTLTISSLQPEDFATYYCQQSYSTLPLTFGGGTKVEIKR", "notes": "section 4.2 is headed 'Conversion to IgG4-Type Anti-TIGIT Antibodies'"}, "B4": {"name": "WIN_1D2 (IgG-type anti-TIGIT antibody) (antibody, V domains shown)", "VH": "B3 VH", "VL": "B3 VL with S22T, T28S, R30S, L60S, P96A, L97I, G101Q, K104R, V105L", "notes": "as for B3"}, "B5": {"name": "1F10 (IgG-type anti-TIGIT antibody) (antibody, V domains shown)", "VH": "EVQLVESGGGLVKPGGSLRISCAASGFTFSNYNMIWVRQAPGKGLEWVSSISSSASYIYYADSVKGRFTISRDNAKNSLYLQMNSLRAEDTAVYYCARDEGSRDSWNNGPYYYSGMDVWGQGTTVTVSS", "VL": "AIQMTQSPSSLSASVGDRVTITCRASQSISRYLNWYQHKPGKAPKLLIYGASSLQSGVPSRFRGSGSGTDFTLTISSLQPEDFATYYCQQSYTTPGAFTFGGGTKVEIKR", "notes": "as for B3"}, "B6": {"name": "1E8 (IgG-type anti-TIGIT antibody) (antibody, V domains shown)", "VH": "QVQLVQSGTEVKKPGASVKVSCKASGYTFSSYAITWVRQAPGQGLEWMGWISAYNGNTNYAQKLQGRVTMTTDTSTSTAYMELRSLRSDDTAVYYCARVDFWSGYNYFDYWGQGTLVTVSS", "VL": "DIQMTQSPSSLSASVGDRVTITCRASQGISNYLAWYQQKPGKVPKVLIYAASTLQSGVPSRFSGSGSGTDFTLTISSLQPEDVATYYCQKSNSAPLTFGGGTKVEIKR", "notes": "as for B3"}}, "key": {"[1]": {"biological_target": "T1, TIGIT on thaw-and-use TIGIT effector cells (TIGIT/CD155 blockade bioassay kit, Promega J2305) (UniProt Q495A1 22-244, limits assumed)", "T1 sequence (looked up)": "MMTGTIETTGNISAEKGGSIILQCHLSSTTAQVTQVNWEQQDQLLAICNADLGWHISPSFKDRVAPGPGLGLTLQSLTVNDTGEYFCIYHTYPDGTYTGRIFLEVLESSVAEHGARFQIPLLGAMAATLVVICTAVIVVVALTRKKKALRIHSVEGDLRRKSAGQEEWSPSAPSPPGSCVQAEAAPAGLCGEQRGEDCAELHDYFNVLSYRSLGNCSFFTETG", "test": "cell-based or functional assay"}, "[2]": {"biological_target": "T2, human TIGIT-His antigen (human, UniProt Q495A1 22-141)", "T2 construct": "not shown: His tag", "T2 chain": "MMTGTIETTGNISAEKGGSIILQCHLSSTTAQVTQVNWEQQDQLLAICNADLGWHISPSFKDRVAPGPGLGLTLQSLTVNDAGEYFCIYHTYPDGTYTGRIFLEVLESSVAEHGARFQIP", "test": "SPR (Biacore), antibody captured on an anti-protein A CM5 chip, TIGIT-HIS as analyte in 1/2 serial dilution, contact 120 s, dissociation 600 s"}, "[3]": {"biological_target": "T1, TIGIT on thaw-and-use TIGIT effector …", "test": "cell-based or functional assay", "remark": "listed apart in the source"}, "[4]": {"biological_target": "T3, human TIGIT-Fc antigen (human, UniProt Q495A1 22-141)", "T3 construct": "not shown: Fc part", "T3 chain": "T2 chain", "test": "ELISA, IgG titrated on plate-coated human TIGIT-Fc"}, "[5]": {"biological_target": "T3, human TIGIT-Fc antigen", "test": "ELISA, IgG titrated on plate-coated human TIGIT-Fc", "method": "50 μl of the human TIGIT-Fc antigen was added at a concentration of 3 μg/ml to an ELISA plate, incubated at 4° C. overnight, and then blocked with 1% BSA in PBS at room temperature for 2 hours. […] The result was washed 3 times with PBST (0.05% Tween 20 in PBS), and 50 μl of anti-His-HRP was diluted 1/1000 in PBS and then reacted at room temperature for 1 hour. The result was washed 3 times with PBST (0.05% Tween 20 in PBS), and 50 μl of a TMB solution was added thereto. The result was allowed to react at room temperature for 5 minutes, 50 μl of a TMB stop solution was added thereto, and the absorbance was measured at 450 nm in an ELISA leader."}, "[6]": {"biological_target": "T4, mouse TIGIT on transfected HEK293 cells (mouse, UniProt P86176 29-249)", "T4 construct": "whole, on cells; GFP-expressing cells were gated; also called TIGIT of mice", "T4 sequence (looked up)": "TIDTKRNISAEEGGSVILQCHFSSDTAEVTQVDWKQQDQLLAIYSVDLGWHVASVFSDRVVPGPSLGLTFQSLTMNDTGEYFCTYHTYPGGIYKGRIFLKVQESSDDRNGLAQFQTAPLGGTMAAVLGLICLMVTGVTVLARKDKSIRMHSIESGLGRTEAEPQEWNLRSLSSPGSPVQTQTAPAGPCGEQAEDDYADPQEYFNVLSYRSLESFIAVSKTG", "test": "flow cytometry on HEK293 cells transfected with mouse TIGIT", "method": "The result was washed once with PBS, and then the cells were resuspended in FACS buffer to a concentration of 5×10⁵ cells/100 μl. 1 μl of a human Fc block solution was added to each sample and reacted at 4° C. for 10 minutes. […] The result was centrifuged in 200 μl of FACS buffer at 1,200 rpm for 5 minutes to remove the supernatant. The cells were resuspended in 300 μl of fixation buffer. The cells expressing GFP were screened using a FACS LSR-Fortessa instrument, and TIGIT candidate antibodies were identified using a PE fluorescence channel and analyzed using FlowJo software."}, "[7]": {"biological_target": "T2, human TIGIT-His antigen", "test": "Octet (BLI), human TIGIT-HIS on penta-His sensor, antibody in solution", "method": "A 5 μg/ml of human TIGIT-HIS was prepared by diluting the same in a 1×KB buffer. Anti-human TIGIT antibodies were prepared through ½ serial dilution with 1×KB buffer from a starting concentration of 100 nM."}, "[8]": {"biological_target": "T5, TIGIT on the TIGIT-overexpressing Jurkat cell line (Jurkat-TIGIT) (Homo sapiens (Human), UniProt Q495A1 22-244)", "T5 construct": "Jurkat E6.1 cells transfected with 'TIGIT cDNA'; also called TIGIT expressed on the cell surface", "T5 sequence": "T1 sequence (looked up) with T82A", "test": "flow cytometry on Jurkat-TIGIT cells, antibody 25 to 0.00032 ug/ml, PE goat anti-human Fab'2, MFI", "method": "The cells were resuspended in FACS buffer so that the number of cells was 3×10⁶ cells/ml, and 100 μl of the suspension was added to each well of a U-bottom 96-well plate. Then, the cells and culture solution of each well were recovered and centrifuged at 1,500 rpm, and then the supernatant was discarded. […] This series of processes was repeated twice. Phycoerythrin (hereinafter, referred to as “PE”)-conjugated goat anti-human Fab′2 (Sigma; Cat. #P8047) was diluted in FACS buffer at a volume ratio of 1:500, 100 μl thereof was added to each well, and the reaction was allowed to proceed in the dark at 4° C. for 30 minutes. The cells reacted with PE were recovered, resuspended in FACS buffer, and centrifuged at 1,500 rpm, the supernatant was discarded, and the residue was washed. This series of processes was repeated twice. […] The cells reacted with the fixation buffer were recovered, resuspended in FACS buffer, and centrifuged at 1,500 rpm, the supernatant was discarded, and the residue was washed. This series of processes was repeated twice. The washed cells were resuspended in 200 μl of FACS buffer, and then the median fluorescence intensity (MFI) of PE with which the cells were labeled was compared using a FACS LSR-Fortessa instrument. All FACS analysis was performed using FlowJo software."}, "[9]": {"biological_target": "T2, human TIGIT-His antigen", "test": "SPR (Biacore), antibody (1G8 IgG4) captured on an anti-protein A CM5 chip, TIGIT-HIS as analyte in 1/2 serial dilution, contact 120 s, dissociation 600 s", "method": "(§1) 10 μg/ml of anti-protein A was prepared by diluting the same in an acetate 4.0 buffer. 100 nM NHS, 400 mM EDC and 1 M ethanolamine were prepared. The sensor chip used herein was a CM5. The contact time was set at 300s (5 min), the flow rate was set at 5 μg/ml, and the immobilization level was set at 2,500 RU. After performing running, whether the RU reached the target level was monitored in the system control window.\n(§2) When running was completed, ka, kd, and KD were obtained by fitting using evaluation software."}, "[10]": {"biological_target": "T5, TIGIT on the TIGIT-overexpressing …", "test": "competition in flow cytometry: Jurkat-TIGIT cells preloaded with PVR-Fc, then antibody; PVR left on the cells detected with anti-PVR-PE, MFI falls with the antibody concentration; the sheet calls the half-maximal value EC50", "method": "The TIGIT-overexpressing cell line (Jurkat-TIGIT) was resuspended in DPBS supplemented with 2% (v/v) FBS (hereinafter, FACS buffer), centrifuged at 1,500 rpm, and resuspended in FACS buffer so that the number of cells was 3×10⁶ cells/ml, and 100 μl of the suspension was added to each well of a U-bottom 96-well plate. Then, the cells and culture solution of each well were recovered and centrifuged at 1,500 rpm, and then the supernatant was discarded.\nThis series of processes was repeated twice. […] This series of processes was repeated twice. […] This series of processes was repeated twice. […] The cells reacted with the fixation buffer were recovered, resuspended in FACS buffer, and centrifuged at 1,500 rpm, the supernatant was discarded, and the residue was washed. This series of processes was repeated twice. The washed cells were resuspended in 200 μl of FACS buffer. Then, the median fluorescence intensity (MFI) of PE with which the cells were labeled was compared using a FACS LSR-Fortessa instrument. All FACS analysis was performed using FlowJo software."}, "[11]": {"biological_target": "T2, human TIGIT-His antigen", "test": "SPR (Biacore), antibody (WIN-1B6 IgG4) captured on an anti-protein A CM5 chip, TIGIT-HIS as analyte in 1/2 serial dilution, contact 120 s, dissociation 600 s", "method": "as §1, §2"}}, "note": "Where a chain is given by its changes, count along the chain named. Where two headings read alike, the source gives them in different places.", "data": [{"binder": "B1", "values": [{"measurement": "EC50 of bioluminescence (RLU), TIGIT/CD155 blockade bioassay: TIGIT effector cells with CD155 aAPC/CHO-K1 cells", "setting": "[1]", "result": 6.1, "unit": "nM"}, {"measurement": "Kd", "setting": "[2]", "result": 0.375, "unit": "nM"}, {"measurement": "koff", "setting": "[2]", "result": 0.000233, "unit": "s⁻¹"}, {"measurement": "kon", "setting": "[2]", "result": 622000, "unit": "M⁻¹ s⁻¹"}]}, {"binder": "B2", "values": [{"measurement": "EC50 of T-cell activation (luminescence, TIGIT/CD155 blockade bioassay with TIGIT effector cells and CD155 aAPC/CHO-K1 cells)", "setting": "[3]", "result": 2.1, "unit": "nM"}, {"measurement": "EC50", "setting": "[4]", "result": "~1", "unit": "nM"}, {"measurement": "EC50", "setting": "[5]", "result": 1.63, "unit": "nM"}, {"measurement": "binding result", "setting": "[6]", "result": "no binding (tested: 1 µg/5×10^5 cells)"}, {"measurement": "Kd", "setting": "[7]", "result": 0.224, "unit": "nM"}, {"measurement": "koff", "setting": "[7]", "result": "9.32e-05", "unit": "s⁻¹"}, {"measurement": "kon", "setting": "[7]", "result": 415000, "unit": "M⁻¹ s⁻¹"}, {"measurement": "EC50", "setting": "[8]", "result": 0.017, "unit": "µg/mL"}, {"measurement": "Kd", "setting": "[9]", "result": 0.59, "unit": "nM"}, {"measurement": "koff", "setting": "[9]", "result": 0.001, "unit": "s⁻¹"}, {"measurement": "kon", "setting": "[9]", "result": "1.78e+06", "unit": "M⁻¹ s⁻¹"}, {"measurement": "EC50", "setting": "[10]", "result": 0.093, "unit": "µg/mL"}]}, {"binder": "B3", "values": [{"measurement": "EC50 of bioluminescence (RLU), TIGIT/CD155 blockade bioassay: TIGIT effector cells with CD155 aAPC/CHO-K1 cells", "setting": "[1]", "result": 11.8, "unit": "nM"}, {"measurement": "EC50", "setting": "[5]", "result": 0.86, "unit": "nM"}, {"measurement": "binding result", "setting": "[6]", "result": "no binding (tested: 1 µg/5×10^5 cells)"}, {"measurement": "Kd", "setting": "[7]", "result": 0.443, "unit": "nM"}, {"measurement": "koff", "setting": "[7]", "result": 0.000206, "unit": "s⁻¹"}, {"measurement": "kon", "setting": "[7]", "result": 465000, "unit": "M⁻¹ s⁻¹"}, {"measurement": "EC50", "setting": "[8]", "result": 0.016, "unit": "µg/mL"}, {"measurement": "Kd", "setting": "[11]", "result": 21.4, "unit": "nM"}, {"measurement": "koff", "setting": "[11]", "result": 0.0245, "unit": "s⁻¹"}, {"measurement": "kon", "setting": "[11]", "result": "1.15e+06", "unit": "M⁻¹ s⁻¹"}, {"measurement": "EC50", "setting": "[10]", "result": 0.068, "unit": "µg/mL"}]}, {"binder": "B4", "values": [{"measurement": "EC50 of bioluminescence (RLU), TIGIT/CD155 blockade bioassay: TIGIT effector cells with CD155 aAPC/CHO-K1 cells", "setting": "[1]", "result": 27.3, "unit": "nM"}, {"measurement": "EC50", "setting": "[4]", "result": "~1", "unit": "nM"}, {"measurement": "EC50", "setting": "[5]", "result": 1.75, "unit": "nM"}, {"measurement": "binding result", "setting": "[6]", "result": "no binding (tested: 1 µg/5×10^5 cells)"}, {"measurement": "Kd", "setting": "[7]", "result": 0.571, "unit": "nM"}, {"measurement": "koff", "setting": "[7]", "result": 0.000278, "unit": "s⁻¹"}, {"measurement": "kon", "setting": "[7]", "result": 488000, "unit": "M⁻¹ s⁻¹"}, {"measurement": "EC50", "setting": "[8]", "result": 0.017, "unit": "µg/mL"}, {"measurement": "EC50", "setting": "[10]", "result": 0.071, "unit": "µg/mL"}]}, {"binder": "B5", "values": [{"measurement": "EC50 of bioluminescence (RLU), TIGIT/CD155 blockade bioassay: TIGIT effector cells with CD155 aAPC/CHO-K1 cells", "setting": "[1]", "result": 35.7, "unit": "nM"}, {"measurement": "EC50", "setting": "[5]", "result": 5.35, "unit": "nM"}, {"measurement": "binding result", "setting": "[6]", "result": "no binding (tested: 1 µg/5×10^5 cells)"}, {"measurement": "Kd", "setting": "[7]", "result": 1.32, "unit": "nM"}, {"measurement": "koff", "setting": "[7]", "result": 0.000232, "unit": "s⁻¹"}, {"measurement": "kon", "setting": "[7]", "result": 176000, "unit": "M⁻¹ s⁻¹"}, {"measurement": "EC50", "setting": "[8]", "result": 0.08, "unit": "µg/mL"}, {"measurement": "EC50", "setting": "[10]", "result": 0.38, "unit": "µg/mL"}]}, {"binder": "B6", "values": [{"measurement": "EC50 of bioluminescence (RLU), TIGIT/CD155 blockade bioassay: TIGIT effector cells with CD155 aAPC/CHO-K1 cells", "setting": "[1]", "result": 19.1, "unit": "nM"}, {"measurement": "EC50", "setting": "[4]", "result": "~1", "unit": "nM"}, {"measurement": "EC50", "setting": "[5]", "result": 1.73, "unit": "nM"}, {"measurement": "binding result", "setting": "[6]", "result": "no binding (tested: 1 µg/5×10^5 cells)"}, {"measurement": "Kd", "setting": "[7]", "result": 0.937, "unit": "nM"}, {"measurement": "koff", "setting": "[7]", "result": 0.000528, "unit": "s⁻¹"}, {"measurement": "kon", "setting": "[7]", "result": 563000, "unit": "M⁻¹ s⁻¹"}, {"measurement": "EC50", "setting": "[8]", "result": 0.021, "unit": "µg/mL"}, {"measurement": "EC50", "setting": "[10]", "result": 0.102, "unit": "µg/mL"}]}]}
